By Kd is commonly meant the constant that tells how readily two partners part at equilibrium. A higher Kd goes with lower affinity.

Assay in all cases: BLI; His-tagged NB7 (500 nM) immobilised on Anti-Penta-His biosensor, dipped into PI3K in solution; dose response 50-1.9 nM for p110γ, p110γ-p84, p110γ-p101; 50 nM for the class IA comparison; 25 nM for phosphorylated and non-phosphorylated p110γ; Octet buffer 20 mM Tris pH 8.5, 100 mM NaCl, 50 mM ammonium sulfate, 0.1% BSA, 0.02% Tween 20; global fit to a 1:1 model
What all share (conditions): both partners purified

The target in assay [1] is T1, p110γ-p84 complex (human p110γ, mouse p84) (Homo sapiens p110γ; Mus musculus p84, UniProt P48736;Q3U6Q4).
T1 construct: p110γ catalytic subunit, human; plasmid pMultiBac-hsp110γ-mmp84 (MR24); p84 regulatory subunit of PI3Kγ, Mus musculus; The tag stood on p84 for purification and was cleaved by TEV on the column; also called p110/p84; not shown: 10xHis, N-terminal, cleaved; 2xStrep, N-terminal, cleaved

Assay [2] deals with T2, p110γ-p101 complex (human p110γ, porcine p101) (Homo sapiens p110γ; Sus scrofa p101, UniProt P48736;O02696).
T2 construct: p110γ catalytic subunit, human; plasmid pMultiBac-hsp110γ-ssp101 (MR22); full length p110γ in the p110γ-p101 model PDB 7MEZ; p101 regulatory subunit of PI3Kγ, Sus scrofa; The tag stood on p101 for purification and was cleaved by TEV on the column; also called p110/p101; not shown: 10xHis, N-terminal, cleaved; 2xStrep, N-terminal, cleaved

Assay [3] has as its target T3, p110α-p85α complex (Homo sapiens (assumed), UniProt P42336;P27986).
T3 construct: p110α class IA PI3K catalytic subunit; plasmid pFASTBac p110α (pOV1181); p85α class IA regulatory subunit; Plasmids as described in Dornan et al., 2017 and Siempelkamp et al., 2017; also called PI3Kα; source: PI3Kα gel filtration buffer

In assay [4] the target is T4, p110β-p85β complex (Homo sapiens (assumed), UniProt P42338;O00459).
T4 construct: p110β class IA PI3K catalytic subunit; plasmid pFASTBac p110β (pOV1182); p85β class IA regulatory subunit; also called PI3Kβ; source: PI3Kα gel filtration buffer
T4 sequence (P42338 whole entry, chain 1 of 2): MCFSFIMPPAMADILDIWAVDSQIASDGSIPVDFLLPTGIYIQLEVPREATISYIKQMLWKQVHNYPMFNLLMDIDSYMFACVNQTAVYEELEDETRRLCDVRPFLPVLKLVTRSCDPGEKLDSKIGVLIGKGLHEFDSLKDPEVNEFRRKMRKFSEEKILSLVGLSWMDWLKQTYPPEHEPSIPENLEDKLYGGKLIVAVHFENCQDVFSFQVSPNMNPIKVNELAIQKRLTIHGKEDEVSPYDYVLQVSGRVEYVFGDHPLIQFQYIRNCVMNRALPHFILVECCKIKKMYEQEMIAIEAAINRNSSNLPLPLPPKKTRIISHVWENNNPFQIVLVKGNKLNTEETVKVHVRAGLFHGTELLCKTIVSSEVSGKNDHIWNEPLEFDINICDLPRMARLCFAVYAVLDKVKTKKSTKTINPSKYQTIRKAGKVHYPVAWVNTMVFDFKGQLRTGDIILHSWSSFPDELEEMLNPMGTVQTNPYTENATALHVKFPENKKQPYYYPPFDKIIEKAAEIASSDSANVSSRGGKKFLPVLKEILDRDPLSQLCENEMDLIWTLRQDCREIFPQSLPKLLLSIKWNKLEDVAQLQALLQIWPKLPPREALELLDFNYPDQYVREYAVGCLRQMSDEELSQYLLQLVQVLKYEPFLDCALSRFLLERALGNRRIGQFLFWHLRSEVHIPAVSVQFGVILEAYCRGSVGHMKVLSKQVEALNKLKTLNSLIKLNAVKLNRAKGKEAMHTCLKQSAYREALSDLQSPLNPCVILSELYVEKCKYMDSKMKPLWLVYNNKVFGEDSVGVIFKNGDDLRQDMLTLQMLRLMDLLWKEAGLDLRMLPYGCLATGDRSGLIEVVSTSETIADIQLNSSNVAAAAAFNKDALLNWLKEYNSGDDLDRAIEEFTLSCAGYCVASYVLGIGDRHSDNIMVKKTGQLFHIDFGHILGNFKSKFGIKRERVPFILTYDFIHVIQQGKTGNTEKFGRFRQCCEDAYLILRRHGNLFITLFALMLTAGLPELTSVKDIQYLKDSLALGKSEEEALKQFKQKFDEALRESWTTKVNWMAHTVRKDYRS
T4 sequence (O00459 whole entry, chain 2 of 2): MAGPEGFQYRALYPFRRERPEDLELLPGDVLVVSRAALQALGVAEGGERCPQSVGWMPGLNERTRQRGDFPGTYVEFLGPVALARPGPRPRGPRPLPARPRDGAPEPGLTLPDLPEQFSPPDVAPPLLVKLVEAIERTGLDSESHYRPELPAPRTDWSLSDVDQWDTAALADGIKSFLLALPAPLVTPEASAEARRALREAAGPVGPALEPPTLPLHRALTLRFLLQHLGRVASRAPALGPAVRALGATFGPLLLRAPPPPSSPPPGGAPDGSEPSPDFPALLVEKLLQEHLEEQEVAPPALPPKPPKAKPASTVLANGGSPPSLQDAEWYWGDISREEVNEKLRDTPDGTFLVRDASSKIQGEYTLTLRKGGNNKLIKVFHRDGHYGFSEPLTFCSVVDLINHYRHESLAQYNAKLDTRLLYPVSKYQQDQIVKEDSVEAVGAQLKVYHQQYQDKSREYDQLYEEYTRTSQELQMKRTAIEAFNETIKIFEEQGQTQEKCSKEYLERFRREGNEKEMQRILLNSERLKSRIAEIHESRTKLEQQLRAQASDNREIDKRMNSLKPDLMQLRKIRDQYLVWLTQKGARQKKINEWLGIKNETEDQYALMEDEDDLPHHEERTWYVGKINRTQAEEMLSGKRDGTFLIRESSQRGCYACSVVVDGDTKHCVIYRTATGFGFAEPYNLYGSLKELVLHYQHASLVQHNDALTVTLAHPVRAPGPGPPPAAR

Assay [5] has as its target T5, p110δ-p85β complex (Homo sapiens (assumed), UniProt O00329;O00459).
T5 construct: p110δ class IA PI3K catalytic subunit; plasmid pFASTBac p110δ (pOV1183); p85β class IA regulatory subunit; also called PI3Kδ; source: PI3Kα gel filtration buffer

T5 sequence (O00329 whole entry, stated change not applied, chain 1 of 2): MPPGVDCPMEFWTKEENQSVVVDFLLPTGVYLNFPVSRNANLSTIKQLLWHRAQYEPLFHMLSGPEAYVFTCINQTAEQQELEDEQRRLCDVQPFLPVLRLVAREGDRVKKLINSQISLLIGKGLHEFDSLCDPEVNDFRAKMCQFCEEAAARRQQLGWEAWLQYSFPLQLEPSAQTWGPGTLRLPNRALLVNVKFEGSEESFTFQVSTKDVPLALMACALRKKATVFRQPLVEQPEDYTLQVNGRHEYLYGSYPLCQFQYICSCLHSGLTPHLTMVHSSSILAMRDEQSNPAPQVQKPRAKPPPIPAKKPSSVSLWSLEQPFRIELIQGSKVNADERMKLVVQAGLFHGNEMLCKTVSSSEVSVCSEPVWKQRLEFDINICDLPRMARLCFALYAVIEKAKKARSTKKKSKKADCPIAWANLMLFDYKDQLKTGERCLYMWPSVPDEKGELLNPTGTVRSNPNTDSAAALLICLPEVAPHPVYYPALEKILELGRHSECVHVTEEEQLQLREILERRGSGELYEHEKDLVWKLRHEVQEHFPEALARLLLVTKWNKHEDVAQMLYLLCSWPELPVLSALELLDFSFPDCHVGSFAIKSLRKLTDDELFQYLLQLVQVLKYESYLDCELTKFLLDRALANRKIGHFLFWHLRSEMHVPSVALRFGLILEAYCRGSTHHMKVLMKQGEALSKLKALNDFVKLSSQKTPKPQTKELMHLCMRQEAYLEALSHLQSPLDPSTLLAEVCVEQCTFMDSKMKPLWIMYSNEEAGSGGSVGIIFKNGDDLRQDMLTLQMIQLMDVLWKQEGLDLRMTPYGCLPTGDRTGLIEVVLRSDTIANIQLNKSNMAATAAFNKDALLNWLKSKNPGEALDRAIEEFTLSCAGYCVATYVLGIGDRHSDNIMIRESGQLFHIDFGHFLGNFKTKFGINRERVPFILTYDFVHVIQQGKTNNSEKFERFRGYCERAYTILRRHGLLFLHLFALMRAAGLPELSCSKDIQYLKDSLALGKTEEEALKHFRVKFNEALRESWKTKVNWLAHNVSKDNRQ
T5 sequence (O00459 whole entry, stated change not applied, chain 2 of 2): as the sequence (O00459 whole entry, chain 2 of 2) above
T3 sequence (P42336 whole entry, chain 1 of 2): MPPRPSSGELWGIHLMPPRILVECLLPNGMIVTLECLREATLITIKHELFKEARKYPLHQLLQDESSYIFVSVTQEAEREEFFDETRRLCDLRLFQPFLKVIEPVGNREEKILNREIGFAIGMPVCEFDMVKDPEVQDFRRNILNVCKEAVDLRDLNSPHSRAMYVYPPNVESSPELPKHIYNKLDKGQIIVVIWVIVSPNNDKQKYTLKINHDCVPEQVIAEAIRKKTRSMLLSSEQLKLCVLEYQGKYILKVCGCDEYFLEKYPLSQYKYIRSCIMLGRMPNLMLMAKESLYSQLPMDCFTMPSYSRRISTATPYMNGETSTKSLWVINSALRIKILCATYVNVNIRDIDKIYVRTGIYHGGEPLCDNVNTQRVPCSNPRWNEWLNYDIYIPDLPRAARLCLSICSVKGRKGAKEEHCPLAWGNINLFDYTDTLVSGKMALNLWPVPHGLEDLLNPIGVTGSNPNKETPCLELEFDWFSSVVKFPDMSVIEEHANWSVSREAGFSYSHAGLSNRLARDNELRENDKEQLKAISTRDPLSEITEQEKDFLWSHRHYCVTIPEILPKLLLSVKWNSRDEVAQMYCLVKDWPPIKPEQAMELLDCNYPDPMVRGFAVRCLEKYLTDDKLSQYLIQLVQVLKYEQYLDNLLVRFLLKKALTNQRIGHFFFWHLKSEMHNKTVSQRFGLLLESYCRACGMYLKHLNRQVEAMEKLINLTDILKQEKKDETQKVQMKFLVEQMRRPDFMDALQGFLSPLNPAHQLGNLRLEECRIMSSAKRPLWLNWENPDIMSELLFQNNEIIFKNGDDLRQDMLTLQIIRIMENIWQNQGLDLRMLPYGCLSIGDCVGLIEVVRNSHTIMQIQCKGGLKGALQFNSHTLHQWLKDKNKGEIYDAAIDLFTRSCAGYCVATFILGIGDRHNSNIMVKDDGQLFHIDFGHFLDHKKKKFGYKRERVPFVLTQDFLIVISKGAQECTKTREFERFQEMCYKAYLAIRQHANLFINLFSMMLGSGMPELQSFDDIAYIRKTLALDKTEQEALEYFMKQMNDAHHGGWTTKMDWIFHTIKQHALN
T3 sequence (P27986 whole entry, chain 2 of 2): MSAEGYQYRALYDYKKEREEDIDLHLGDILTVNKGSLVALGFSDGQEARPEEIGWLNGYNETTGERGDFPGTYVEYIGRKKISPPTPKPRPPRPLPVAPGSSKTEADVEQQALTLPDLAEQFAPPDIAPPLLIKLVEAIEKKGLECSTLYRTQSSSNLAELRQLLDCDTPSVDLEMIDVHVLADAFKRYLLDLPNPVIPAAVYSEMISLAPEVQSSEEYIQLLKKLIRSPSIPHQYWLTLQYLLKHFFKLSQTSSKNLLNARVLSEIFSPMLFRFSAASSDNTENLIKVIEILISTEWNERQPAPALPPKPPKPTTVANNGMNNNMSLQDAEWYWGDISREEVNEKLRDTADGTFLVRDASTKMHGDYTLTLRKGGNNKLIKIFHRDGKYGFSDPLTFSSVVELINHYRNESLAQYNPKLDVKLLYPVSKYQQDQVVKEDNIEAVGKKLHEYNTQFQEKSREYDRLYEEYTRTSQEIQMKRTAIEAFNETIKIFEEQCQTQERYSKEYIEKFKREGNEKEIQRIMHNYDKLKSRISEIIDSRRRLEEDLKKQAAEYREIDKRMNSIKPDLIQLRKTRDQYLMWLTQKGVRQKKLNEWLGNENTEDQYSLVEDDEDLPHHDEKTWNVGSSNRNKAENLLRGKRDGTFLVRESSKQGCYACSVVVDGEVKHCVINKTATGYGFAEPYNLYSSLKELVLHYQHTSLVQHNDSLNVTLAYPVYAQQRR

B1: Nanobody NB7-PIK3CG (VHH)
VHH: QVQLVESGGGLVQPGGSLRLSCAASGSIFSINAMGWYRQAPGKQRELVAHITSGGSTNYADSVKGRFTISRDNAKNTVYLQMNSLKPEDTAVYYCNEAGDPFLGSTWNGPPAFGSWGQGTQVTVSS
notes: Identified earlier (Rathinaswamy et al., 2021b); also called His-NB7; nanobody 7; source: E. coli WK6 periplasm (pMESy4 vector), purified (Ni-NTA, SEC); not shown: His6, C-terminal, kept
Take B1: the Kd in assay [1] and in assay [2] was around 2 nM throughout. Further, the binding result in assay [3], in assay [4] and in assay [5] was “no binding (tested: 50 nM)” throughout.

These data come from publication doi:10.1101/2023.04.12.536585, “Allosteric activation or inhibition of PI3Kγ mediated through conformational changes in the p110γ helical domain” (bioRxiv, 2023).
